# Test results taken from the DeepSol protein solubility set.
# Assay: soluble on expression in E. coli; label from the status in PepcDB or PDB records
row,Sequence,soluble on expression in E. coli
1,TVEAKNETFAPQHPDQYLSWKATSEQSERVDALAEDPRLVILWAGYPFSRDYNKPRGHAFAVTDVRETLRTGAPKNAEDGPLPMACWSCKSPDVARLIQKDGEDGYFHGKWARGGPEIVNNLGCADCHNTASPEFAKGKPELTLSRPYAARAMEAIGKPFEKAGRFDQQSMVCGQCHVEYYFDGKNKAVKFPWDDGMKVENMEQYYDKIAFSDWTNSLSKTPMLKAEHPEYETWTAGIHGKNNVTCIDCHMPKVQNAEGKLYTDHKIGNPFDNFAQTCANCHTQDKAALQKVVAERKQSINDLKIKVEDQLVHAHFEAKAALDAGATEAEMKPIQDDIRHAQWRWDLAIASHGIHMHAPEEGLRMLGTAMDKAADARTKLARLLATKGITHEIQIPDISTKEKAQQAIGLNMEQIKAEKQDFIKTVIPQWEEQARKNGLLS,soluble
2,TVESNWGGAILIGSDFDTVSATANVPSASGGSSAAGTAWVGIDGDTCQTAILQTGFDWYGDGTYDAWYEWYPEVSDDFSGITISEGDSIQMSVTATSDTSGSATLENLTTGQKVSKSFSNESSGSLCRTNAEFIIEDFEECNSNGSDCEFVPFASFSPAVEFTDCSVTSDGESVSLDDAQITQVIINNQDVTDCSVSGTTVSCSYV,soluble
3,TVGILWVNWDSRVRYANRAVESMLGYAPGQVVERPLIDFEPDLHMDRWLNLWKNARSSEDSAQVFETHCLRADGSLLPADVSLSFLRFR,not soluble
4,TVVCDNGYGDLAATSALTTVIKDPISLTIKDIYEHGVKNPFTKIIHKLKKFIRYRKVLRWSRMWWVLLVREIVGDNTIEKKTEKALREIWDQCTIAVYNNTLNAVESKPLLFLHGILNECRNNFATKLRQDPSLIVAKIDQIIKSQIYRFWVSEPYLKIGRSHTLYTHITPDAVPQLPKECTLKHLSSYMEEKLKSMESKKNIESGKYEFDVDSSETDSTKDDGKPDDDDDDDDNFDDDDNFDDDTVEEEDASGDLFKNEKKDENKE,soluble
5,TYDSLKESTARDTGHLTLTTPGYFAKEEEMPLSNGLSHADEITKQLIGLSEVRGVQPRVEFSGLISNGSKSSIFIGIGVNEREFDMKGPFLDVRDGQTLSNIHASRYDASEPEVMLGVDLASNLSVNVGDWITLLATTTDGALNAYDFKVRGIYSTGVPELDKRQLYVHINSAQSLLGSDKVSALSVFLFDTCLTNKVEQQVATILNKQKPSFGDQEVEITPWQERAFFYLKVKDLYDR,not soluble
6,VDAFVGTWKLVDSKNFDDYMKSLGVGFATRQVGNMTKPTTIIEVNGDTVIIKTQSTFKNTEISFKLGVEFDETTADDRKVKSIVTLDGGKLVHVQKWNGQETSLVREMVDGKLILTLTHGTAVCTRTYEKQA,soluble
7,VDHLHIVGDVYDRGPYPDKIMDTLMNYHSLDFQWGNHDILWMGAASGSRVCAANVIRISARYLNLDILEDSYGISLRPLALFADEIYKNDPCTYFQPKNEDNLNYSKAEITQIARMHKAISIIQFKLEGEIINRRKEFDMNHRLLLQMIDYKKGTIHLKGKDYQLLDTHFPTIDPNDPYKLTKEEKELIEKITASFKNCRRLQKHVQFLYSKGSMFLTYNGNLLYHGCIPLYEDGTFMEMKLRGENFSGRELLEQFEILTREAYVRKPGTKEKKYACDIVWYLWTGAVSSLFGKSEMTTFERYFIAEKETHKEEKNPYYKLRNEETICKQILEEFGLDGECGHIINGHTPVKEGKGESPIKANTKMLVIDGGFAKAYHKETTLAGYTLLYNSY,not soluble
8,VDYKEWYDLRIEALQMQAQMHRSPLRGLIGARVGLIPHQLYIAHEVGQRFAPRVLLADEVGLGKTIEAGLIIHQQLKTGRAERILILVPDSLQYQWMIEMRRRFNLQFSLFDLTRTASIKEHDPDLNPFLTEQCIIASVDLMVDHDDLREQALEAGFDLLVVDEAHHLMWNEEEGGNDRYDLVEELAQQTPGVLLLTATPE,not soluble
9,VELPTEYTEQFSSQPTLNSKPIIKFEFTGNSVDAPVLSMASKKFGIDFSILMSQIDYAGGVKFGFVIAEVEGDGEAITAAKCYLINNNVKVEVLGYVG,not soluble
10,VFRQTFLEFSQRTVSQARLDIGRKKLQELSSTFARAENEFGVPAGVIAAFWAMETDFGAVQGDFNTRNALVTLSHDCRRPELFRPQLLALIEMVQHGDLDPATNTGAWAGEIGQVQMLPKDIIAFGVDGDGNGHINVKDSAPDAILTAAKFIQHLGFKKGEPWMQEVSVPENLPWEKSGLGGSLTAGDWFALGVTPRDGNKNFASLPAALIMPQGRKGPTFITYPNFNIYLEWNQSFIYTTSAAYFANRLMGAPVY,not soluble
11,VGGHEKVISLGFDASKGFHTYAFDWQPGYIKWYVDGVLKHTATANIPSTPGKIMMNLWNGTGVDDWLGSYNGANPLYAEYDWVKYTSNQTGGSFFEPFNSYNSGTWEKADGYSNGGVFNCTWRANNVNFTNDGKLKLGLTSSAYNKFDCAEYRSTNIYGYGLYEVSMKPAKNTGIVSSFFTYTGPAHGTQWDEIDIEFLGKDTTKVQFNYYTNG,soluble
12,VGPKTGEENQVLVPNLNPTPENLEVVGDGFKITSSINLVGEEEADENAVNALREFLTANNIEINSENDPNSTTLIIGEVDDDIPELDEALNGTTAENLKEEGYALVSNDGKIAIEGKDGDGTFYGVQTFKQLVKESNIPEVNITDYPTVSARGIVEGFYGTPWTHQDRLDQIKFYGENKLNTYIYAPKDDPYHREKWREPYPESEMQRMQELINASAENKVDFVFGISPGIDIRFDGDAGEEDFNHLITKAESLYDMGVRSFAIYWDDIQDKSAAKHAQVLNRFNEEFVKAKGDVKPLITVPTEYDTGAMVSNGQPRAYTRIFAETVDPSIEVMWTGPGVVTNEIPLSDAQLISGIYNRNMAVWWNYPVTDYFKGKLALGPMHGLDKGLNQYVDFFTVNPMEHAELSKISIHTAADYSWNMDNYDYDKAWNRAIDMLYGDLAEDMKVFANHSTRMDNKTWAKSGREDAPELRAKMDELWNKLSSKEDASALIEELYGEFARMEEACNNLKANLPEVALEECSRQLDELITLAQGDKASLDMIVAQLNEDTEAYESAKEIAQNKLNTALSSFAVISEKVAQSFIQEALSFDLTLINPRTVKITASSEETSGENAPASFASDGDMNTFWHSKWSSPAHEGPHHLTLELDNVYEINKVKYAPRQDSKNGRITGYKVSVSLDGENFTEVKTGTLEDNAAIKFIEFDSVDAKYVRLDVTDSVSDQANGRGKFATAAEVNVHG,soluble
13,VIHLDSKNFDSFLASHEIAVVDFWAEWCAPCLILAPIIEELAEDYPQVGFGKLNSDENPDIAARYGVMSLPTVIFFKDGEPVDEIIGAVPREEIEIRIKNLLGE,soluble
14,VKFIADPSGVDVLEEVEVFALGPTEVIVVGRLEFIYHEASDEYLEKFEGKLKKGVWYGTNIAVIFTLYRPAGSMEVDKIILDNTFEEIL,not soluble
15,VKNKKFTIIGGDLRSVKLAELIVAEGNKVNIYGFKNANFEIGIEESEDLDHAIGEADVIVGPTPCSTDNETINTPFHSQKIFIKDIFKKMNKSQLFIAGRITDKIAQLADVYNVYSVDLLEREEMAVLNAIPTAEGAIQIAMEEMPITLHGSNALILGFGRIGKILAKMLHGIGSNVYVEARKYSDLAWIESYGYKPVFITELESYIDRANVIFNTIPSIVLDENLLRKVNKDCLLIDLASKPGGIDFEKAKEMGLKTIWALSLPGKVAPVTAAKFIKDTISNIIDELGV,not soluble
16,VLSHCLETGFLTAYLALLVNFKPDVALKCGLYHDIGKADDENGKKNHTVTGAKIGDEFYFENDVKYTIANHHNKNVDNVYCRLTQIGDKLSAG,not soluble
17,VNKKDITYWEKRQERKYLAGEKKLDEYYKGLQKAFRQAKREIQSVINDFYMRYAKENKVSYAEAQKLLDKAEIGELQDFIDLVNKNMGKYNRKLNNMSIKARITRYQALEKQIDAILQQLYAIEYEYKGKELLKEVYEDSYYRTWFNIDQYHGFHQEFAQINPRTIEELIKYPWNGASFSDRIWKQKDHMLQVLKEDITTMLIQGKNPQTLARDFARRFKTKEYEAYRLLHTESSFIIEQGTLAAYKEDGVEKYQILATLDMRTSDICRSEDGKIYDVDEATVGVNYPPYHPFCRTTTVPYYEDAEVGTRVARDPVTGRSYEVPANMTYEQWKNRYIDQPDNIIRQEILSNPERLDNYSIQHYNKHKEGTKQYEQYKQSRLKKGQTEQSSLLISYDEAKEIIKKYAGTGVFSRDRKGKWRNEEFVDVDSIIGVVHNIDGTVTPTNRIQIKYGKNSVHIVPVLPRKERNK,soluble
18,VNKSQLIDKIAAGADISKAAAGRALDAIIASVTESLKEGDDVALVGFGTFAVKERAARTGRNPQTGKEITIAAAKVPSFRAGKALKDAVN,soluble
19,VPRIRKLVAALHRRGPHRVLRGDLAFAGLPGVVYTPEAGLHLPGVAFGHDWLTGTSRYSGLLEHLASWGIVAAAPDSERGLAPSVLNLAFDLGVALDIVAGVRLGPGKISVHPAKLGLVGHGFGGSAAVFAAAGLTGTHVKSVAAIFPTVTNPAAEQPAATLDVPGLILTAPGDPKTLTSNALGLSRAWDKATLRIVSKARAGGLVEGRRLTKVLGLPGPHRRTQRSVRALLTGYLLYTLGGDKTYRRFADPDLQLPKTDPIDPEAPPITPGEKIVTLLK,not soluble
20,VQRPWLAPLPGAPMNACRLLLCFPYGGGGASAFNDLSRLADVGVATWAVKLPGREDRSMEAPVTRVANVIEAIVDALQSVGIPYAFYGHSFGAGLALDVAHALAERDRPLPTHLVLSGRMPPHTGYSPLLGAMDDNQLWQHVCSESLLPLPTDASCSFARHALGKLKADLALNAQLTYRFIRPLPVPLYVLNGQDDPLLELHRLDEWQRYTSTSFHSEYVPGGHFFFNINFQLLYLPLLTALD,not soluble
21,VRMILDTIPKKNRHLVTTHDGYSYLGDAYGLSIAGFVSPNPSVEPSPRDIIALTRTLENLHVPAVFIEPQLALRANHLTVTADKLGIQVCRIYGDSLDDEVPTYLDFMKYNAHSLARCLGQSEGK,not soluble
22,VRTHEVVLHRIEQDLAAGKLTVGGRLPAERALAEELGVGRSSVREAMRVLEAMGIVRTAVGSGPDAGAIVAADPAASIGAAIRLHMATRTLPIHDVVQTRTLLESWAVQEAAGQAPDLDFSAIDTLLDAMDDEDLSPEAFHRLDADLHVAMAGLAGNVLVEAMMVSLRDSIHGYVMQAVPLLDDWPAVATHLRCEHRGIVAALRDGHGAEAAGLVREHIEGFYGRFAPVRG,not soluble
23,VSAHVATLHPEPPFALCGPRGTLIARGVRTRYCDVRAAQAALRSGTAPILLGALPFDVSRPAALMVPDGVLRARKLPDWPTGPLPKVRVAAALPPPADYLTRIGRARDLLAAFDGPLHKVVLARAVQLTADAPLDARVLLRRLVVADPTAYGYLVDLTSAGNDDTGAALVGASPELLVARSGNRVMCKPFAGSAPRAADPKLDAANAAALASSAKNRHEHQLVVDTMRVALEPLCEDLTIPAQPQLNRTAAVWHLCTAITGRLRNISTTAIDLALALHPTPAVGGVPTKAATELIAELEGDRGFYAGAVGWCDGRGDGHWVVSIRCAQLSADRRAALAHAGGGIVAESDPDDELEETTTKFATILTALGVEQ,not soluble
24,VSKRAAPFLYMITQRIEERGLPMELALLPVVESSFDAFAYSHGSAAGLWQFVPGTGKMMGLEQNYWYDGRRDVAASTDAALDYLVQLNERFDGNWEHAIAAYNSGGGRVSSAIRKNKKLGKPVDFFSLDLPKETSSYVPKLLALADVVANQEKYGIDIPSIPNKPVLT,not soluble
